# Measured values as given in patent publication US20250090699A1, “FAP TARGETING CYCLIC PEPTIDES AND CONJUGATES THEREOF” (Novartis AG, priority 2023, published 2025).
# Read-outs that look alike come from different tables or passages of the source. Starred links: 1 amine or outer side, 2 acyl side, 3 side chain; linkers in the order of their positions; H or OH if unused. Non-standard residues stand in square brackets, D forms with d. Residues, ends and D or L forms follow the SMILES beside them. Groups on a side chain read outwards from the residue. *: point of attachment. F(4OEtNHDOTA-Lu) = lutetium complex of (S)-2,2',2''-(10-(2-((2-(4-(2-amino-2-carboxyethyl)phenoxy)ethyl)amino)-2-oxoethyl)-1,4,7,10-tetraazacyclododecane-1,4,7-triyl)triacetic acid (Phe with 4-O-ethylamino-DOTA-Lu), O=C([O-])CN1CCN(CC(=O)[O-])CCN(CC(=O)NCCOc2ccc(C[C@H](N[*:1])C(=O)[*:2])cc2)CCN(CC(=O)[O-])CC1.[Lu+3]; DOTA(Lu) = O=C1CN2CCN3CCN(CC(=O)*)CCN(CC2)CC(=O)[O][Lu]([O]1)[O]C(=O)C3; Nicotinoyl(6-NMe3+) = C[N+](C)(C)c1ccc(C(=O)*)cn1; Phe(4-CH2NH2) = NCc1ccc(C[C@H](N)C(=O)O)cc1; Piperazinyl(4-CH2COOH) = O=C(O)CN1CCN(*)CC1; NMeF = CN[C@@H](Cc1ccccc1)C(=O)O; Aoc(2) = CCCCCC[C@H](N)C(=O)O; Ahp(2) = CCCCC[C@H](N)C(=O)O; AEEA = NCCOCCOCC(=O)O; CO = O=C([*:1])[*:2]
# Columns and labels:
# human FAP [1] = biological target: T1, human FAP (Homo sapiens, UniProt Q12884); test: Surface plasmon resonance (SPR) for peptide affinity, human FAP; assay type: binding; details: read-out: h. FAP, SPR, KD
# T1 construct: the biotinylated His, Avi tag, human FAP (26-760, FAP-H82Q6); His; Avi tag (biotinylated); purchased AcroBiosystems FAP-H82Q6
# T1 sequence (Q12884 26-760): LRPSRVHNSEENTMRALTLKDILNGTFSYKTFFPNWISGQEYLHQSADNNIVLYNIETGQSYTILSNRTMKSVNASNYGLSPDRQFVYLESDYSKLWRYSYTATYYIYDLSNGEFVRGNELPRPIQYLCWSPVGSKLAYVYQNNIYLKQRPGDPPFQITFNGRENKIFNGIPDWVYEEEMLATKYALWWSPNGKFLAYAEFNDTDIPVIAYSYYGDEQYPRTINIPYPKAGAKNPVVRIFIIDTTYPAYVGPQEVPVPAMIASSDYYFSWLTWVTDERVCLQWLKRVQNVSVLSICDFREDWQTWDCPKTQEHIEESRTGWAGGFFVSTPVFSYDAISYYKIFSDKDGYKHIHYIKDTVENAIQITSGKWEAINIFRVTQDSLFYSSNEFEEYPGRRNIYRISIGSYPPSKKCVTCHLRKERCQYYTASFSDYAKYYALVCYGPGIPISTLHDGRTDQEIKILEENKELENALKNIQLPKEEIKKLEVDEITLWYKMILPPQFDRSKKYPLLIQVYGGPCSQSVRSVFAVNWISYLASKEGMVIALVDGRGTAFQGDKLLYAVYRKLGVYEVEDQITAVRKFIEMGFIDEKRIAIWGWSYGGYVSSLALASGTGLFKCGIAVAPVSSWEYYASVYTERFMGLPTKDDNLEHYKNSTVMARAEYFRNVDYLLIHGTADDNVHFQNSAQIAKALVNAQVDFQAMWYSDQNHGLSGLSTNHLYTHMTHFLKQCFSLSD
# Experimental: Peptide affinities (KD) were determined by SPR using a Biacore™ 8K device (Cytiva) towards the following proteins: biotinylated His, Avi tag, human FAP (26-760, FAP-H82Q6), biotinylated His, Avi tag, mouse FAP (26-761, FAP-M82Q5), His tag, human DPP4 (34-766, DP4-H82E3), all purchased from AcroBiosystems and His tag, mouse DPP4 (29-760, 954-SE) from R&D Systems. The FAP proteins and their homologous were diluted to a concentration of 2 μg/mL into acetate buffer pH 5.5, then immobilized onto a CM5 sensorchip (Cytiva, BR-1005-30) to reach a response around 2000 R U. The running buffer HBS-EP+pH 7.6 (20× from Teknova CAT. No: H8022) contained 10 mM HEPES pH 7.6, 150 mM NaCl, 3 mM EDTA, 0.05% Tween20 and 2% DMSO. Experiments were carried out at 25° C. using a flow rate of 30 μL/min. Compounds were tested in single cycle kinetic mode at 8 different concentrations. Curve fitting was performed using the Biacore™ 8K evaluation software. The sensorgrams were fitted by applying a 1:1 binding model to calculate kinetic rate constants and equilibrium dissociation constants (KD).
# For this assay, the setup had the same conditions (flow rate, running buffer, peptide dilution) as described above for the CM5 method. The oligo CAP reagent obtained in the CAPture Kit (Ref. 28920234) was 1/5 diluted into running buffer and used with a contact time of 300 s at a flow rate of 2 μL/min. The human and mouse FAP constructs described above were used (from AcroBiosystems or produced in house). The FAP proteins were diluted to a concentration of 2 μg/mL into acetate pH 5.5, 0.05% Tween20 and used with a contact time of 600 s at a flow rate of 10 μL/min. The peptides were tested with an association time of 280 s followed by a dissociation time of 3000 s at a flow rate of 30 μL/min. The regeneration was done using the regeneration solution (8 M guanidine-HCl, 1 M NaOH) as obtained with a contact time of 270 s at a flow rate of 10 μL/min. […] The compounds marked with an asterisk were tested against human and mouse DDP4.
# human FAP [2] = biological target: T1, human FAP; test: Enzymatic FAP competition assay (Z-Gly-Pro-AMC fluorescence), human FAP; assay type: biochemical; details: read-out: h. FAP, Enz., IC50
# Summary of the method: (§1)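 Biotinylated His/Avi-tagged FAP ectodomain (human 26-760, mouse 26-761) at 0.01 nM, preincubated 24 h with peptides (14 concentrations, up to 1 μM) in pH 7.5 phosphate, 150 mM NaCl, 0.05% Tween20, 1% DMSO. Then 50 μM Z-Gly-Pro-AMC, 4 h at 22-24° C; AMC fluorescence (380/460 nm) gave IC50 from duplicate points.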
# mouse FAP [3] = biological target: T2, mouse FAP (Mus musculus, UniProt P97321); test: Surface plasmon resonance (SPR) for peptide affinity, mouse FAP; assay type: binding
# T2 construct: biotinylated His, Avi tag, mouse FAP (26-761, FAP-M82Q5); His; Avi tag (biotinylated); purchased AcroBiosystems FAP-M82Q5
# T2 sequence (P97321 26-761): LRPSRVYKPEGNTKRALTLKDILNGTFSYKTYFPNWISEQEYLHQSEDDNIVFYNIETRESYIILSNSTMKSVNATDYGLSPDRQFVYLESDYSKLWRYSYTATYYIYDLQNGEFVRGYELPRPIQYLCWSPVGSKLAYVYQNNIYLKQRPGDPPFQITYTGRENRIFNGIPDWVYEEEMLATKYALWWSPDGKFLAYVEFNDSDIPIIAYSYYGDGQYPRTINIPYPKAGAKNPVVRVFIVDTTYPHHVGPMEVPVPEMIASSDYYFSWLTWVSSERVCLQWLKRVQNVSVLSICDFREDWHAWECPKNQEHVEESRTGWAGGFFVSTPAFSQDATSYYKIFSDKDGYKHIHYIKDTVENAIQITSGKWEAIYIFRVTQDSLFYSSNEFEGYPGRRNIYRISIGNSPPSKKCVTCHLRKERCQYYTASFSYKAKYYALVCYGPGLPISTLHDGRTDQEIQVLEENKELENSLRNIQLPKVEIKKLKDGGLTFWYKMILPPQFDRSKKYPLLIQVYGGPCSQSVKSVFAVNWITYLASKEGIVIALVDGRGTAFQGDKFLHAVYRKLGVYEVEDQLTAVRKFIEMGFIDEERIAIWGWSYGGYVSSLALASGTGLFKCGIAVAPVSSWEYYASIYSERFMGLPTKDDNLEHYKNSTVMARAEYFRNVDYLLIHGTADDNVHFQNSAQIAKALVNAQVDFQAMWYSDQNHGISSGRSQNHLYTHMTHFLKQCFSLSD
# Summary of the method: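 Biotinylated His/Avi-tagged FAP ectodomains (human 26-760, mouse 26-761) captured or immobilized on Biacore sensor chips; peptides run at 25 °C in HBS-EP+ pH 7.6 with 2% DMSO, single-cycle kinetics, 8 concentrations. KD from 1:1 binding-model fit of sensorgrams.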
# mouse FAP [4] = biological target: T2, mouse FAP; test: Enzymatic FAP competition assay (Z-Gly-Pro-AMC fluorescence), mouse FAP; assay type: biochemical; details: read-out: m. FAP, Enz., IC50
# Summary of the method: as §1
Kd (human FAP [1]) [nM],IC50 (human FAP [2]) [nM],Kd (mouse FAP [3]) [nM],IC50 (mouse FAP [4]) [nM],Kd (mouse FAP [3]; values marked ** : including further experimental repetition) [nM],Compound
< 0.013,0.006,< 0.014,0.016,–,"CCCCCC[C@@H]1NC(=O)[C@H](Cc2ccc(CNC(=O)COCCOCCNC(=O)c3ccc([N+](C)(C)C)nc3)cc2)NC(=O)[C@H](Cc2ccccc2)N(C)C(=O)CNC(=O)CNC(=O)[C@H]2CCCN2C(=O)[C@H](CC(=O)O)NC(=O)[C@H](CCCCNC(=O)N2CCN(CC(=O)O)CC2)NC(=O)CNC(=O)[C@H](Cc2c[nH]c3ccccc23)NC1=O [Example C57, Gly-Gly-NMePhe-F(4amPEG2NHCOPy3(4(NMe3)))-Aoc-Trp-Gly-K(COpipzaa)-Asp-D-Pro] (cyclo([Aoc(2)]WGK([CO-Piperazinyl(4-CH2COOH)])D[dP]GG[NMeF][Phe(4-CH2NH2)]([AEEA-Nicotinoyl(6-NMe3+)])))"
< 0.009,0.016,< 0.011,0.061,< 0.06,Gly-Gly-NMePhe-F(4OEtNHDOTA-Lu)-Ahp-Trp-Gly-Tyr-Asp-D-Pro (cyclo(GG[NMeF][F(4OEtNHDOTA-Lu)][Ahp(2)]WGYD[dP]); also: Lu complex of DOTA) [Example C23]
0.41,0.43,0.64,1.1,–,Lys(DOTA-Lu)-Gly-NMePhe-Tyr-Ahp-Trp-Gly-Tyr-Asp-D-Pro (cyclo(K(DOTA(Lu))G[NMeF]Y[Ahp(2)]WGYD[dP]); also: Lu complex) [Example C22]
0.118,0.104,0.36,0.737,–,"CCCCC[C@@H]1NC(=O)[C@H](Cc2ccc(O)cc2)NC(=O)[C@H](Cc2ccccc2)N(C)C(=O)CNC(=O)CNC(=O)[C@H]2CCCN2C(=O)[C@H](CC(=O)O)NC(=O)[C@H](Cc2ccc(O)cc2)NC(=O)CNC(=O)[C@H](Cc2c[nH]c3ccccc23)NC1=O [Example A52, Gly-Gly-NMePhe-Tyr-Ahp-Trp-Gly-Tyr-Asp-D-Pro] (cyclo([Ahp(2)]WGYD[dP]GG[NMeF]Y))"
